Patent US20190248860A1 (Stanford University, published 2019)
Values belong to the binder of their own block, whether it stands above or below them.

Assays:
[1] = biological target: T1, biotinylated IL-2Rβ ectodomain (C-terminal biotin acceptor peptide and hexahistidine tag) (UniProt P14784 27-240, C-terminally biotinylated on the biotin acceptor peptide (coexpressed BirA ligase)); test: yeast display screen, labeling with 5 nM IL-2Rβ and then SAV-PE
T1 construct: range 1-214; Yeast staining reagent; in the second generation screen used as monomer, then detected with SAV-PE; also called tetrameric IL-2Rβ; monomeric IL-2Rβ
T1 sequence: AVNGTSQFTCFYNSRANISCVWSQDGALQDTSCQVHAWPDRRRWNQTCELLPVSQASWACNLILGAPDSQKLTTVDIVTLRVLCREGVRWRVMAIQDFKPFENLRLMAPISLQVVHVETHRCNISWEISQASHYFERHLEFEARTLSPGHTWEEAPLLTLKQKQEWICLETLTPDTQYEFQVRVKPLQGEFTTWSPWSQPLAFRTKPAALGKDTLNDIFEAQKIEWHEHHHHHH
Description: Upon conclusion of selections, round four and round five yeast cultures were spread on SD-CAA plates, which yielded individual yeast colonies. 48 individual yeast clones from both rounds were grown in 96-well block format and screened by labeling with 5 nM IL-2Rβ and then SAV-PE.

[2] = biological target: T2, IL-2Rβ ectodomain (amino acids 1-214), recombinant (UniProt P14784 27-240); test: surface plasmon resonance
T2 construct: range 1-214; Used for the SPR and crystal entries; also called IL-2R13; interleukin 2 receptor beta
T2 sequence: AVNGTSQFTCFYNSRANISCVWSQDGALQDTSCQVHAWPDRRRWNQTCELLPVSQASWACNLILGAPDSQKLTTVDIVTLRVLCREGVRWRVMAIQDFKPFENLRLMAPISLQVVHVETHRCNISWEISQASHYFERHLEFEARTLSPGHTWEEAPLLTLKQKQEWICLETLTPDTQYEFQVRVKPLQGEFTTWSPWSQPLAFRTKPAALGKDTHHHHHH

[3] = biological target: T2, IL-2Rβ ectodomain (amino acids 1-214), …; test: method not given; SPR according to Example 10
[4] = biological target: T2, IL-2Rβ ectodomain (amino acids 1-214), …; test: SPR affinities, as told in the structural discussion

binding result [1]: binds
B1: yeast-displayed IL-2 mutein C5 (ligand)
chain: APTSSSTKKTQLQLEHLLLDLQMILNGINNYKNPKLTRMLTFKFYMPKKATELKHLQCLEEELKHLEEVLNLANSKNFHVTPRDVVSNINVFVLELKGSETTFMCEYADETATIVEFLNRWITFCQSIISTLT
notes: Clone of the second generation yeast display library; also called C5 (yeast clone); not shown: yeast surface display fusion partner and linker encoded by vector pCT302

koff [2]: 0.016 s⁻¹
Kd [3]: 10 nM
B2: IL-2 mutein C5 (ligand)
chain: APTSSSTKKTQLQLEHLLLDLQMILNGINNYKNPKLTRMLTFKFYMPKKATELKHLQCLEEELKHLEEVLNLANSKNFHVTPRDVVSNINVFVLELKGSETTFMCEYADETATIVEFLNRWITFCQSIISTLTHHHHHH

fold affinity gain from wild-type IL-2 [4]: ~300 fold
B3: IL-2 mutein D10 (ligand)
chain: APTSSSTKKTQLQLEHLLLDLQMILNGINNYKNPKLTRMLTFKFYMPKKATELKHLQCLEEELKPLEEVLNLAHSKNFHFDPRDVVSNINVFVLELKGSETTFMCEYADETATIVEFLNRWITFCQSIISTLTHHHHHH
notes: also called IL-2 D10; super-2
